Laboratory results published in patent publication US20230390362A1, “USE OF TRIGONAL AGONIST HAVING ACTIVITIES TO ALL OF GLUCAGON, GLP-1, AND GIP RECEPTORS IN TREATMENT OF SEQUELAE FOLLOWING RESPIRATORY INFECTIOUS DISEASES” (HANMI PHARM. CO., LTD., priority 2020, published 2023).
Positions of bridges follow the written chain, without caps; N, C: chain ends. Non-standard residues stand in square brackets, D forms with d. No end group written: not given here. *: point of attachment. Acetyl(2-(4-imidazolyl)) = O=C(Cc1c[nH]cn1)*; Aib = CC(C)(N)C(=O)O

T1: human GIP receptor (human, UniProt P48546 22-466)
T1 sequence (looked up): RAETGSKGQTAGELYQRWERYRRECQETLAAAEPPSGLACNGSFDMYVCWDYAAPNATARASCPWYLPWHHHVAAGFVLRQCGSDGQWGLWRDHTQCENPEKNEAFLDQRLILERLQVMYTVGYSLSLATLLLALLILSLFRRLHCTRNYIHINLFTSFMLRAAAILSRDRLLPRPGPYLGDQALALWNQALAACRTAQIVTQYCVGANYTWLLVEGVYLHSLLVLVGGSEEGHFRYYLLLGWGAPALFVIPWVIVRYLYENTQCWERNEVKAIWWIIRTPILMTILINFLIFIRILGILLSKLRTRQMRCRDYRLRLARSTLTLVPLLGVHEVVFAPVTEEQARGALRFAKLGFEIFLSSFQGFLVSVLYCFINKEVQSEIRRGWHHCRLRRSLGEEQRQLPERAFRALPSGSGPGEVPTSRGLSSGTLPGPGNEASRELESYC


What was measured:
Test in all cases: cell-based or functional assay
[1] = biological target: human GLP-1 receptor (human, UniProt P43220 24-463)
[2] = biological target: human GCG receptor (human, UniProt P47871 26-477)
human GCG receptor, sequence (P47871 26-477): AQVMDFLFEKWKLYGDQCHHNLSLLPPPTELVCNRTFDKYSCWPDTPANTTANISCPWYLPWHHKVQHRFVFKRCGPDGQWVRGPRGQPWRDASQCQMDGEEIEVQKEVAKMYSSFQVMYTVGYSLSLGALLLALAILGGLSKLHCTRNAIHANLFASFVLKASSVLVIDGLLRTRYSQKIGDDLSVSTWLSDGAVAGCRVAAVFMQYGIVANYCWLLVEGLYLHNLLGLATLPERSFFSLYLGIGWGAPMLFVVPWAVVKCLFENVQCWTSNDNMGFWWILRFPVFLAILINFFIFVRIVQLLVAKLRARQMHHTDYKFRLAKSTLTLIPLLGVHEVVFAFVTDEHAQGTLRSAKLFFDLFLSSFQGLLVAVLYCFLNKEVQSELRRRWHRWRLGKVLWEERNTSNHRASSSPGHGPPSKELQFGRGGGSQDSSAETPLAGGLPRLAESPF

[3] = biological target: T1, human GIP receptor

Binder | In vitro activity relative to native peptide (%), vs. GLP-1 (cAMP EC50) [1] | In vitro activity relative to native peptide (%), vs. Glucagon (cAMP EC50) [2] | In vitro activity relative to native peptide (%), vs. GIP (cAMP EC50) [3]
Y[Aib]QGTFTSDYSKALDEKAAKDFVNWLLDQHPSSGQPPPSC (bridge 16-20) [trigonal agonist of SEQ ID NO: 102] | 23.3% | 29.5% | 58%
{Acetyl(2-(4-imidazolyl))}-[Aib]QGTFTSDYSKYLDEKRQKEFVNWLLAQC (bridge 15-19) [trigonal agonist of SEQ ID NO: 86] | 28.4% | 0.4% | 0.2%
{Acetyl(2-(4-imidazolyl))}-[Aib]QGTFTSDYSIAMDEIHQKDFVNWLLNTKC (bridge 15-19) [trigonal agonist of SEQ ID NO: 94] | 0.5% | < 0.1% | < 0.1%
Y[Aib]QGTFTSDYSKALDEKAAKEFVQWLLDQHPSSGQPPPSC (bridge 16-20) [trigonal agonist of SEQ ID NO: 100] | 42.2% | 12.7% | 118%
{Acetyl(2-(4-imidazolyl))}-[Aib]QGTFTSDYSKYLDEKRQKEFVNWLLAQKC (bridge 15-19) [trigonal agonist of SEQ ID NO: 93] | 5.7% | 0.3% | 0.7%
{Acetyl(2-(4-imidazolyl))}-GEGTFISDLSKYMDEQAVQLFVEWLMAGGPSSGAPPPSHG [trigonal agonist of SEQ ID NO: 12] | 0.4% | < 0.1% | < 0.1%
{Acetyl(2-(4-imidazolyl))}-GQGTFTSDLSKQMDEERAREFIEWLLAQKPSSGAPPPSHG [trigonal agonist of SEQ ID NO: 17] | 0.2% | < 0.1% | < 0.1%
{Acetyl(2-(4-imidazolyl))}-GQGTFTSDYSIQLDEIAVRDFVEWLKNGGPSSGAPPPSHG [trigonal agonist of SEQ ID NO: 14] | 28% | < 0.1% | < 0.1%
{Acetyl(2-(4-imidazolyl))}-GQGTFTSDLSIQYDSEHQRDFIEWLKDTGPSSGAPPPSHG [trigonal agonist of SEQ ID NO: 19] | < 0.1% | < 0.1% | < 0.1%
{Acetyl(2-(4-imidazolyl))}-[Aib]EGTFTSDYSIAMDEIHQKDFVDWLLAEKC (bridge 15-19) [trigonal agonist of SEQ ID NO: 91] | 31.9% | 16.8% | 0.3%
{Acetyl(2-(4-imidazolyl))}-[Aib]QGTFTSDYSIAMDEIHQKDFVNWLLNTC (bridge 15-19) [trigonal agonist of SEQ ID NO: 87] | 0.9% | < 0.1% | < 0.1%
{Acetyl(2-(4-imidazolyl))}-[Aib]QGTFTSDYSKYLDEKRQKEFVQWLLNTKC (bridge 15-19) [trigonal agonist of SEQ ID NO: 88] | 9.6% | 0.3% | < 0.1%
{Acetyl(2-(4-imidazolyl))}-GEGTFISDYSIQLDEIAVQDFVEWLLAQKPSSGAPPPSHG [trigonal agonist of SEQ ID NO: 13] | < 0.1% | < 0.1% | < 0.1%
{Acetyl(2-(4-imidazolyl))}-[Aib]QGTFTSDYSKYLDEKRQKEFVQWLLDTKC (bridge 15-19) [trigonal agonist of SEQ ID NO: 89] | 7.1% | 0.7% | < 0.1%
